Consider two molecules from paper PMC7476737, “Targeting 14-3-3ε-CDC25A interactions to trigger apoptotic cell death in skin cancer” (Oncotarget, 2020).

For the test, the target named is T1, 14-3-3ε (human (endogenous in SCC12B.2 and nHEK), UniProt P62258 1-255).
T1 sequence (looked up): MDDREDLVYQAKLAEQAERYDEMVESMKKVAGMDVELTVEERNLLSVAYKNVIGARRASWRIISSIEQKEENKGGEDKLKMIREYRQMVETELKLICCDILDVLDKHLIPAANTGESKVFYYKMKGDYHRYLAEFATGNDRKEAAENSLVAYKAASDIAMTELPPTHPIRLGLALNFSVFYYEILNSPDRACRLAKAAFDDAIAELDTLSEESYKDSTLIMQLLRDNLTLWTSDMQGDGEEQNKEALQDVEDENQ
The test is described as follows: cell-based or functional assay.

[ ]: non-standard residue; d: D form. pT = C[C@@H](OP(=O)(O)O)[C@H](N)C(=O)O; pS = N[C@@H](COP(=O)(O)O)C(=O)O

B1: pT peptide (501-515 fragment of human CDC25A with phospho-Thr507) (peptide, UniProt P30304 501-515, looked up)
peptide: Ac-FRTKSR[pT]WAGEKSKR-NH2
SMILES: CC(=O)N[C@@H](Cc1ccccc1)C(=O)N[C@@H](CCCNC(=N)N)C(=O)N[C@H](C(=O)N[C@@H](CCCCN)C(=O)N[C@@H](CO)C(=O)N[C@@H](CCCNC(=N)N)C(=O)N[C@H](C(=O)N[C@@H](Cc1c[nH]c2ccccc12)C(=O)N[C@@H](C)C(=O)NCC(=O)N[C@@H](CCC(=O)O)C(=O)N[C@@H](CCCCN)C(=O)N[C@@H](CO)C(=O)N[C@@H](CCCCN)C(=O)N[C@@H](CCCNC(=N)N)C(N)=O)[C@@H](C)OP(=O)(O)O)[C@@H](C)O
Turning to B1, the “IC50 of SCC12B.2 cell viability (neutral red assay, 0-75 μM peptide, 96 h); the pair blocked is 14-3-3ε with CDC25A” value was 22.6 µM.

B2: pS peptide (173-186 fragment of human CDC25A with phospho-Ser178) (peptide, UniProt P30304 173-186, looked up)
peptide: Ac-TQRQN[pS]APARMLSS-NH2
SMILES: CSCC[C@H](NC(=O)[C@H](CCCNC(=N)N)NC(=O)[C@H](C)NC(=O)[C@@H]1CCCN1C(=O)[C@H](C)NC(=O)[C@H](COP(=O)(O)O)NC(=O)[C@H](CC(N)=O)NC(=O)[C@H](CCC(N)=O)NC(=O)[C@H](CCCNC(=N)N)NC(=O)[C@H](CCC(N)=O)NC(=O)[C@@H](NC(C)=O)[C@@H](C)O)C(=O)N[C@@H](CC(C)C)C(=O)N[C@@H](CO)C(=O)N[C@@H](CO)C(N)=O
For B2, the “IC50 of SCC12B.2 cell viability (neutral red assay, 0-75 μM peptide, 96 h); the pair blocked is 14-3-3ε with CDC25A” value was 29 µM.
